According to PMC12678800:

T1: TkoTpt1 K63A (Thermococcus kodakarensis, UniProt Q5JFX3 1-180, K63A)
T1 sequence: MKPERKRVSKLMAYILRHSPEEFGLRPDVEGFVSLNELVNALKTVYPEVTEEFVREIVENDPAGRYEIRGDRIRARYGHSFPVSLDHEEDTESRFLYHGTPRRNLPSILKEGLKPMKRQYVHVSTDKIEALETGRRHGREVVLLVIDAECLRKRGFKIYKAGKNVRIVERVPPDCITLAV

T2: TkoTpt1 (Thermococcus kodakarensis, UniProt Q5JFX3 1-180)
T2 sequence: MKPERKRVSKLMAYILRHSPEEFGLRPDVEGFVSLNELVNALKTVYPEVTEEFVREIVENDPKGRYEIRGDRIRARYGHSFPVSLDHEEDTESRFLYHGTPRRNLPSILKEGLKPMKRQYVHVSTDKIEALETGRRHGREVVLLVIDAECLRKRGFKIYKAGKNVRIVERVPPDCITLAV


Legend:
TkoTpt1 K63A = biological target: T1, TkoTpt1 K63A; experiment: X-ray crystallography
TkoTpt1 = biological target: T2, TkoTpt1; experiment: X-ray crystallography

Binder	binding result (TkoTpt1 K63A)	binding result (TkoTpt1)
AAAAAAAAAA (ssDNA, 5'-phospho-ADP-ribosylated, formed in situ from 5'-p-DNA and NAD+) [5'-p-ADPR-DNA (dA10 intermediate)]	binds	
AAAAAAAAAA (ssDNA, 5'-phosphate (lost to NAD+ in the Appr>P complexes, giving 5'-OH DNA)) [5'-p-DNA (oligo dA10)]		binds
